Results taken from US20260250402A1 (C O INMAGENE PTE, published 2026).
Residue numbers refer to the chain shown, from its start. Like-named read-outs stand apart in the source and are kept apart here. Values belong to the molecule of their own block, whether it stands above or below them.

Columns and labels:
[1] = target: cynomolgus IL-7Ra expressed on CHOK1-cyno IL-7Ra cells (cynomolgus) (UniProt Q38IC7); assay: flow cytometry, CHOK1-cyno IL-7Ra cells; negative control
[2] = target: human IL-7Ra expressed on CHOK1-human IL-7Ra cells (human) (UniProt P16871); assay: flow cytometry, CHOK1-human IL-7Ra cells; negative control
[3] = target: T1, cynomolgus Fc-tag IL-7Ra protein (cynomolgus, UniProt Q38IC7 21-240); assay: ELISA, cynomolgus Fc-tag IL-7Ra protein, HRP-labelled secondary antibody, OD 450 (right panel)
T1 construct: also called cynomolgus IL-7Ra protein; not shown: Fc tag
T1 sequence: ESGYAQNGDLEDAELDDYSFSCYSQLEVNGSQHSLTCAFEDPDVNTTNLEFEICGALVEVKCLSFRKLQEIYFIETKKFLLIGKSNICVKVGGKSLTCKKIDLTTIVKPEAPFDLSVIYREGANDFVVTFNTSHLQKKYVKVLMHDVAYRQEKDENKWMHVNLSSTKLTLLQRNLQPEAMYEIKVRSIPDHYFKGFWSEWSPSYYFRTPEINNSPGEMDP

[4] = target: T2, cynomolgus IL-7Ra expressed on CHOK1-cyno IL-7Ra cells (cynomolgus, UniProt Q38IC7 21-459); assay: flow cytometry on CHOK1-cyno IL-7Ra cells, MFI (upper right panel)
T2 sequence: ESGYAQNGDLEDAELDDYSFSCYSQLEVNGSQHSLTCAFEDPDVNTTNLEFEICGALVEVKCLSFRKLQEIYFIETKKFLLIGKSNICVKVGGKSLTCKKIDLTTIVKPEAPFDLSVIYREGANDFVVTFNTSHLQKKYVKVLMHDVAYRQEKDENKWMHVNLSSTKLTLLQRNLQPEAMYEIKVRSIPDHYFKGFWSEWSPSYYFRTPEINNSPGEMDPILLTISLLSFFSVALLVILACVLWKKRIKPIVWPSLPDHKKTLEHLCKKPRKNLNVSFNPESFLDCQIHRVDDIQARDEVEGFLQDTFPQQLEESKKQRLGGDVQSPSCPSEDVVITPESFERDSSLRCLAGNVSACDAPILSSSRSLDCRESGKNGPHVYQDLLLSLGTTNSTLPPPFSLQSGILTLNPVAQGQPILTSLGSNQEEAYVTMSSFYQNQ

[5] = target: T2, cynomolgus IL-7Ra expressed on …; assay: flow cytometry, CHOK1-cyno IL-7Ra cells
[6] = target: T3, human Fc-tag IL-7Ra protein (human, UniProt P16871 21-239); assay: ELISA, plate coated with human Fc-tag IL-7Ra protein, HRP-labelled secondary antibody, OD 450 (left panel)
T3 construct: also called human IL-7Ra protein; not shown: Fc tag fused to the N-terminus
T3 sequence: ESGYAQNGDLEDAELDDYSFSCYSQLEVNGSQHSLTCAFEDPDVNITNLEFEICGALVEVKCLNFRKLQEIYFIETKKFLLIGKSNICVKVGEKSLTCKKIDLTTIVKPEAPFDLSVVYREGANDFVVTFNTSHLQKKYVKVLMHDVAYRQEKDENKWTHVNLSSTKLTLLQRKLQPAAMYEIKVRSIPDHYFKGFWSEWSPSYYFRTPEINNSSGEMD

[7] = target: T4, human IL-7Ra expressed on CHOK1-human IL-7Ra cells (human, UniProt P16871 21-459); assay: flow cytometry, CHOK1-human IL-7Ra cells
T4 construct: also called human IL-7Ra expressed on cell membrane; CD127
T4 sequence: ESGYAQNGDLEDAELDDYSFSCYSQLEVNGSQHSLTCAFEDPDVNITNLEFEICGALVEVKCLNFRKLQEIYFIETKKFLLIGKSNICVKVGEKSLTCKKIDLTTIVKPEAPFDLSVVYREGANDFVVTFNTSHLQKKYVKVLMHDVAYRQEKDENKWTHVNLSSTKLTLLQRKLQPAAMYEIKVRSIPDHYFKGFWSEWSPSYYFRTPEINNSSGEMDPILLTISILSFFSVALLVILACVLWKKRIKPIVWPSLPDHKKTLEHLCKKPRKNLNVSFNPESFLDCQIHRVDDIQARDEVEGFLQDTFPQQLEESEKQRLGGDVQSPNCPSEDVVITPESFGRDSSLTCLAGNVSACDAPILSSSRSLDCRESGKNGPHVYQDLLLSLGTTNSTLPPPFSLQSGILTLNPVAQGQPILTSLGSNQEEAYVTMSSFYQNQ

[8] = target: T4, human IL-7Ra expressed on CHOK1-human …; assay: flow cytometry on CHOK1-human IL-7Ra cells, MFI (upper left panel)
[9] = target: T5, Human his-tag IL-7Ra protein (human, UniProt P16871 21-239); assay: SPR Biacore 8K, antibody Fc-captured, human his-tag IL-7Ra analyte, 1:1 model
T5 construct: Construct not described; Position of the tag unknown; also called IL-7Ra (Biacore analyte); not shown: his tag
T5 sequence: T3 sequence

[10] = target: T4, human IL-7Ra expressed on CHOK1-human …; assay: flow cytometry blocking assay: binding of hIL-7-his to CHOK1-human IL-7Ra cells in the presence of the antibody, MFI (right panel)
[11] = target: T2, cynomolgus IL-7Ra expressed on …; assay: flow cytometry on CHOK1-cyno IL-7Ra cells, MFI (upper right panel); remark: listed apart in the source
[12] = target: T4, human IL-7Ra expressed on CHOK1-human …; assay: flow cytometry blocking assay: binding of hIL-7-his (0.1 ug/ml) to CHOK1-human IL-7Ra cells in the presence of the antibody, anti-His Alexa Fluor 488, MFI (right panel)
[13] = target: T4, human IL-7Ra expressed on CHOK1-human …; assay: flow cytometry on CHOK1-human IL-7Ra cells, MFI (upper left panel); remark: listed apart in the source
[14] = target: T4, human IL-7Ra expressed on CHOK1-human …; assay: flow cytometry blocking assay: binding of hIL-7-his (0.1 ug/ml) to CHOK1-human IL-7Ra cells in the presence of the antibody, anti-His Alexa Fluor 488, MFI (left panel)

EC50 [1]: 32.2 µg/mL | Top (MFI) [1]: 93.7 MFI | EC50 [2]: 6.8 µg/mL | Top (MFI) [2]: 73 MFI
Molecule: isotype hIgG4 antibody (negative control)

EC50 (read off the curve) [3]: ~0.04 µg/mL | EC50 (read off the curve) [4]: ~0.3 µg/mL | EC50 [5]: 0.134 µg/mL | Top (MFI) [5]: 18400 MFI | EC50 (read off the curve) [6]: ~0.02 µg/mL | EC50 [7]: 0.0842 µg/mL | Top (MFI) [7]: 22400 MFI | EC50 (read off the curve) [8]: ~0.2 µg/mL | Kd [9]: 0.143 nM | koff [9]: 0.000234 s⁻¹ | kon [9]: 1.64e+06 M⁻¹ s⁻¹
B1: cmAb011 (chimeric Ab011) (antibody, V domains shown)
VH: QVQLQQSGAELMRPGASVTLSCKTSGYRFTDYELHWVKQTPVRGLEWIGGIDPKTGGTAYNQKFKGKAILTSDRSSSTTYMELRSLASEDSAVYYCTRSGGRWYFDVWGTGTTVTVSS
VL: DIVLTQSPASLAVSLGQRATISCRTSESVSIHLLHLMHWYQQKPGQPPKLLIYGASNLESGVPARFSGSGSETDFTLNIHPVEEEDAATYFCQQSIKDPYTFGGGTKLEIKR
notes: also called chimeric antibody Ab011

EC50 [5]: 0.221 µg/mL | Top (MFI) [5]: 17600 MFI | EC50 [7]: 0.171 µg/mL | Top (MFI) [7]: 20400 MFI | Kd [9]: 0.118 nM | koff [9]: 0.00031 s⁻¹ | kon [9]: 2.64e+06 M⁻¹ s⁻¹
B2: HuAb008 (antibody, V domains shown)
VH: QVQLVQSGAEVKKPGASVKVSCKASGYRFTDYELHWVRQAPGQGLEWMGGIDPKTGGTAYNQKFKGRVTMTSDRSTSTVYMELSSLRSEDTAVYYCARSGGRWYFDVWGQGTTVTVSS
VL: DIVLTQSPDSLAVSLGERATINCRTSESVSIHLLHLMHWYQQKPGQPPKLLIYGASNLESGVPDRFSGSGSETDFTLTISSLQAEDVAVYYCQQSIKDPYTFGGGTKVEIK
notes: Humanized version of cmAb011; also called humanized VL4 / humanized VH2

EC50 [5]: 0.239 µg/mL | Top (MFI) [5]: 16100 MFI | EC50 [7]: 0.21 µg/mL | Top (MFI) [7]: 21700 MFI | Kd [9]: 0.212 nM | koff [9]: 0.000342 s⁻¹ | kon [9]: 1.61e+06 M⁻¹ s⁻¹
B3: HuAb003 (antibody, V domains shown)
VH: B2 VH with S72R, R74T
VL: B2 VL with L4M, E72G
notes: Humanized version of cmAb011; also called humanized VL3 / humanized VH1

EC50 [5]: 0.206 µg/mL | Top (MFI) [5]: 16200 MFI | EC50 [7]: 0.2 µg/mL | Top (MFI) [7]: 21500 MFI | Kd [9]: 0.181 nM | koff [9]: 0.00029 s⁻¹ | kon [9]: 1.6e+06 M⁻¹ s⁻¹
B4: HuAb004 (antibody, V domains shown)
VH: B2 VH with S72R, R74T
VL: B2 VL
notes: Humanized version of cmAb011; also called humanized VL4 / humanized VH1

IC50 (read off the curve) [10]: ~0.1 µg/mL | EC50 [5]: 0.0325 µg/mL | Top (MFI) [5]: 16300 MFI | EC50 [7]: 0.0326 µg/mL | Top (MFI) [7]: 24400 MFI | Kd [9]: 0.18 nM | koff [9]: 0.000292 s⁻¹ | kon [9]: 1.63e+06 M⁻¹ s⁻¹
B5: HuAb013 (antibody, V domains shown)
VH: B2 VH with R67K, M70L
VL: DIVLTQSPASLAVSPGQRATITCRTSESVSIHLLHLMHWYQQKPGQPPKLLIYGASNLESGVPARFSGSGSGTDFTLTINPVEAEDTANYYCQQSIKDPYTFGGGTKVEIK
notes: Humanized version of cmAb011; also called humanized VL1 / humanized VH4

EC50 [5]: 0.0711 µg/mL | Top (MFI) [5]: 16600 MFI | EC50 [7]: 0.0719 µg/mL | Top (MFI) [7]: 20900 MFI | Kd [9]: 0.188 nM | koff [9]: 0.000267 s⁻¹ | kon [9]: 1.42e+06 M⁻¹ s⁻¹
B6: HuAb009 (antibody, V domains shown)
VH: B2 VH with R38K, M48I
VL: B5 VL
notes: Humanized version of cmAb011; also called humanized VL1 / humanized VH3

EC50 (read off the curve) [3]: ~0.03 µg/mL | EC50 (read off the curve) [4]: ~0.3 µg/mL | EC50 [5]: 0.51 µg/mL | Top (MFI) [5]: 19100 MFI | EC50 (read off the curve) [6]: ~0.02 µg/mL | EC50 [7]: 0.387 µg/mL | Top (MFI) [7]: 24300 MFI | EC50 (read off the curve) [11]: ~0.1 µg/mL | EC50 (read off the curve) [8]: ~0.2 µg/mL | IC50 (read off the curve) [12]: ~0.07 µg/mL | EC50 (read off the curve) [13]: ~0.08 µg/mL | Kd [9]: 0.385 nM | koff [9]: 0.000252 s⁻¹ | kon [9]: 656000 M⁻¹ s⁻¹
B7: OSE127 (Tab2) (antibody, human IgG4 S228P, kappa, V domains shown)
VH: QVQLVESGGGLVKPGGSLRLSCAVSGFTLSDYYMAWIRQAPGKGLEWVSTISASGLRTYYPDSVKGRFTISRDNAKNSLYLQMNSLRAEDTAVYYCARPLSAHYGFNYFDYWGQGTLVTVSS
VL: DIQMTQSPSSLSASVGDRVTITCRTSEDIYQGLAWYQQKPGKAPKLLLYSANTLHIGVPSRFSGSGSGTDYTLTISSLQPEDFATYYCQQYYDYPLAFGGGTKVEIKR
notes: also called benchmark antibody OSE127

EC50 (read off the curve) [3]: ~0.03 µg/mL | EC50 (read off the curve) [4]: ~0.2 µg/mL | EC50 [5]: 0.289 µg/mL | Top (MFI) [5]: 20800 MFI | EC50 (read off the curve) [6]: ~0.01 µg/mL | IC50 (read off the curve) [14]: ~0.1 µg/mL | EC50 [7]: 0.31 µg/mL | Top (MFI) [7]: 26000 MFI | EC50 (read off the curve) [8]: ~0.1 µg/mL | Kd [9]: 0.258 nM | koff [9]: 0.000297 s⁻¹ | kon [9]: 1.15e+06 M⁻¹ s⁻¹
B8: ADX-914 (Tab1) (antibody, human IgG1, kappa, V domains shown)
VH: EVQLVESGGGLVQPGRSLRLSCAASGFTFDDHAMHWVRQAPGKGLEWVSGISWNSRGIGYADSVKGRFTIFRDNAKNSLYLQMNSLRAEDTALYYCAKDEYSRGYYVLDVWGQGTTVTVSS
VL: AIQLTQSPSSLSASVGDRVTITCRASQGISSALAWYQQKPGKAPKLLIYDASSLESGVPSRFSGSGSGTDFTLTISSLQPEDFATYYCQQFNSYPLWITFGQGTRLEIKR
notes: also called benchmark antibody ADX-914
